Changes are numbered by the printed parent chain. One block for each binder: values may come before it.
Tests used:
Test in all cases: FACS, mutant-EGFP on HEK293F cells
[1] = biological target: T1, KW27-7 (human CD39 mutant, C-terminal EGFP) (human, UniProt P49961 1-510)
T1 construct: expressed on HEK293F cells; K188R and residues 190-206 substituted by KTPGGS; not shown: C-terminal EGFP fusion (vector pCMV3-GFPSpark)
T1 chain: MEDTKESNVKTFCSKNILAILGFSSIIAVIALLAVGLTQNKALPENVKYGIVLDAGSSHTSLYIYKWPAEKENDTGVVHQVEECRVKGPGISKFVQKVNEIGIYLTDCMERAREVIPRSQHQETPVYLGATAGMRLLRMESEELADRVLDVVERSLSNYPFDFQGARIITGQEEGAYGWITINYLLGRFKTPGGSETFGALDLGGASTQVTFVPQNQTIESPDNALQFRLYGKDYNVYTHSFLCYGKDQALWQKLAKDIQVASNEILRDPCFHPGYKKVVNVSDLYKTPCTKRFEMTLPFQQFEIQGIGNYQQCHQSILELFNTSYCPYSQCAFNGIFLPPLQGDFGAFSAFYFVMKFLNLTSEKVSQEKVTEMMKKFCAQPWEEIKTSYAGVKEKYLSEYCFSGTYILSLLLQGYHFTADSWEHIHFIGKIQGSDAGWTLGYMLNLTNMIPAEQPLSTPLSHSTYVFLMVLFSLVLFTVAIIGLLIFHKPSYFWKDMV
Summary of the method: (§1)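 Relative binding, the ratio of AlexaFluor647 to GFP signal, was read by flow cytometry with labelled anti-hIgG. Antibody ran as an 11-point, 3-fold series starting at 100 nM. Targets were CD39 mutant–GFP fusions expressed transiently in HEK293F cells for 3 days.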

[2] = biological target: T2, KW27-9 (human CD39 mutant, C-terminal EGFP) (human, UniProt P49961 1-510)
T2 construct: expressed on HEK293F cells; not shown: C-terminal EGFP fusion (vector pCMV3-GFPSpark)
T2 chain: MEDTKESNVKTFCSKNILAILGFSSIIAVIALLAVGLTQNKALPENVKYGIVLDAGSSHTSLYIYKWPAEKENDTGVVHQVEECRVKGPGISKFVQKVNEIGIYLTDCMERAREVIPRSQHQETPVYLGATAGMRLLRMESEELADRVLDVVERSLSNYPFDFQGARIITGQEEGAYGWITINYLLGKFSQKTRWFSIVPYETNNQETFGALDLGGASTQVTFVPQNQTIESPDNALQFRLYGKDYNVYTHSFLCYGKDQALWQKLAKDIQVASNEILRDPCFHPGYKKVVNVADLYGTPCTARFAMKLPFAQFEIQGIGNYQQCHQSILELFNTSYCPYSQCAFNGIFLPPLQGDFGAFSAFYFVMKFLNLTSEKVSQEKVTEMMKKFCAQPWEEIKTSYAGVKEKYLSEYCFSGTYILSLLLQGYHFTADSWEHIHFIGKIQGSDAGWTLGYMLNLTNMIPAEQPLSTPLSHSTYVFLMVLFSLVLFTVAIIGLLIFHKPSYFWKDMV
Summary of the method: as §1

[3] = biological target: T3, KW27-12 (human CD39 mutant, C-terminal EGFP) (human, UniProt P49961 1-510)
T3 construct: expressed on HEK293F cells; not shown: C-terminal EGFP fusion (vector pCMV3-GFPSpark)
T3 chain: T2 chain with A294S, G298K, A303K, A306E, K308T, A312Q, H428A, T430A, A431D, D432A
Summary of the method: as §1

[4] = biological target: T4, KW27-17 (human CD39 mutant, C-terminal EGFP) (human, UniProt P49961 1-510)
T4 construct: expressed on HEK293F cells; not shown: C-terminal EGFP fusion (vector pCMV3-GFPSpark)
T4 chain: T2 chain with A294S, G298K, A303K, A306E, K308T, A312Q, Q323A, Q324A, Q327A, E331K
Summary of the method: as §1

binding result [1]: binds
binding result [2]: binds
binding result [3]: binds
binding result [4]: binds
B1: hu23.H5L5 (antibody, V domains shown)
VH: QVQLVQSGAEVKKPGASVKVSCKASGYNLKDTFLHWVRQAPGQGLEWMGRIDPANGNIKYDPKFQGRVTITADTSANTAYMELISLRSEDTAVYYCANSPYYYGSGYRIFDVWGQGTTVTVSS
VL: QIVLTQSPATLSLSPGERATLSCSAFSSVNYMHWYQQKPGQAPRLLIYTTSNLASGIPTRFSGSGSGTSYTLTISSLEPEDFAVYYCQQRSTYPFTFGQGTKLEIK
notes: humanized c23

binding result [1]: binds
binding result [2]: binds
binding result [3]: binds
binding result [4]: binds
B2: Antibody T895 (antibody, V domains shown)
VH: EVQLQQSGPELVKPGASVKMSCKASGYTFTDYNMHWVKQSHGRTLEWIGYIVPLNGGSTFNQKFKGRATLTVNTSSRTAYMELRSLTSEDSAAYYCARGGTRFAYWGQGTLVTVSA
VL: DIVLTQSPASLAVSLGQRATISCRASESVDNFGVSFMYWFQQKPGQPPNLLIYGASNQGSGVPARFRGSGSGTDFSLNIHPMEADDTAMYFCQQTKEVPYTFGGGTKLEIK
notes: also called 31895

binding result [1]: binds
binding result [2]: binds
binding result [3]: binds
binding result [4]: binds
B3: c35 (antibody, V domains shown)
VH: EVRLQQSGAELVKPGASVKLSCTASGFNIEDTYVHWMKQRPEQGLEWIGRIDPAIDNSKYDPKFQGKATITAVSSSNTAYLQLSSLTSEDTAVYYCALYDGYNVYAMDYWGQGTSVTVSS
VL: DIVMTQAAFSNPVTLGTSASISCRSSKNLLHSNGITYLYWYLQRPGQSPQLLIYRASTLASGVPNRFSGSESGTDFTLRISRVEAEDVGVYYCAQLLELPHTFGGGTKLEIK
notes: its making is not described; also called chimeric antibody c35

binding result [1]: binds
binding result [2]: binds
binding result [3]: binds
binding result [4]: binds
B4: c34 (antibody, V domains shown)
VH: EIQVQQSGPELVKPGASVKVSCKASGYSFTDYNMYWVKQSHGKSLEWIGFIDPYNGYTSYNQKFKGKATLTIDKSSSTAFMHLNSLTSEDSAVYYCAIYGYDDAYYFDYWGQGTTLTVSS
VL: QIVLTQSPAIMSASPGEKVTITCSATSSVSYMHWFRQKPGTSPKLWIYSTSNLASGVPARFSGSGSGTSYSLTISRMAAEDAATYYCQQRITYPFTFGSGTKLEIT
notes: its making is not described; also called chimeric antibody c34

binding result [1]: binds
binding result [2]: binds
binding result [3]: binds
binding result [4]: binds
B5: Antibody 9-8B (antibody, V domains shown)
VH: QIQLVQSGPELKKPGETVKISCKASGYTFTHYGMNWVKQAPGKGLKWMGWINTYTGELTYADDFKGRFAFSLETSASTAYLQINNLKNEDTATYFCARRAYYRYDYVMDYWGQGTSVTVSS
VL: DIVMTQSQKFMSTSVGDRVSVTCKASHNVGTNVAWYQQKPGQSPKALIYSASYRYSGVPGRFTGSGSGTDFTLTISNVQSEDLAEYFCHQYNNYPYTFGGGTKLEIK

Source: patent US20210388105A1 (ELPISCIENCE SUZHOU BIOPHARMA, published 2021)
